Measurements reported in the nanobody polyreactivity screen of Harvey et al. (2022).

Assay: yeast display, Sf9 membrane polyspecificity reagent, FACS + sequencing; frameworks hold sequencing errors
In short: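 Using colony PCR, genes from sorted yeast display clones were amplified, then sequenced on MiSeq at 2 × 250 and filtered by CDR length. The clones had been stained with 10% biotinylated, detergent-solubilized Sf9 membrane reagent for 1 hour at 4 °C and sorted by FACS into low and high (top ~1%) gates on anti-HA and streptavidin fluorescence. Polyreactivity labels come from the gate of origin.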

Sequence	polyreactivity (PSR sort gate)
QVQLVESGGGLVQAGGSLRLSCSSSGRIFLNSMGWYRQAPGKEREFVAAITRSADSTYYADSVKGRFTISRDNAKNTVYLQMNSLKPEDTAVYYCNKPFPYYPDGPNGYDYWGHGTQVTVSS	low polyreactivity
QFQLVESGGGLVQAGGSLRLSCAASGSTLRLNVMGWYRQAPGKERELVARISRGCSTYYADSVKGRFTISRDNAKNTVYLQMNSLKPEDTAVYYCTAQSYPCVTPYSYWGQGTQVTVSS	low polyreactivity
QVQLVESGGGLVQAGGSLRLSCAASGFIFNTMGWYRQAPGKERELVATMSWSDGSTYYADSVKGRFTISRDNAKNTVYLQMNSLKPEDTAVYYCAATTDALVGRPRYDYWGQGTQVTVSS	low polyreactivity
QVQLVESWGGLVQAGGSLRLSCAASGSTFYAYAMGWYRQAPGKERELVAAIDSGGSTYYADSVKGRFTISRDNAKNTVYLQMNSLIPEDTAVYYCAVRHRYTRAYWGRDYWGQGTQVTVSS	low polyreactivity
QVQLVESGGGLVQAGGSLRLSSAASGRIFRGNEMGWYRQAPGKEREFVAAISWGGGSTYYADSVKGRFTISRDNAKKTVYLQMNSLKPEDTAVYYCAAGSPYAYNYWGQGTQVTVSS	high polyreactivity
QVQLVESGGGLVQAGGSLRLSCAASGSIIHSYAMGWYRQAPGKERELVAAISRNGGSTYYADSVKGRFTISRDNAKITVYLQMNSLKPEDTAVYYCAKTYSQTWRYGYWGQGTQVTVSS	high polyreactivity
QVQLVESGGGLVQAGGSLRLSCASSGRTFVSNAKGWYRQAPGKERELVAVITGIGGNTYYADSVKGRFTISRDNAKNSDYLQMNSLKPEDTAVYYCAADISLVSYYYWGQGTQVTVSS	low polyreactivity
QVQLVESGGGLVQAGGSLRLTCAASGRIFYGNALGWYRQAPGKERELVAAISSGGGSTYYADSVKGRFTISRDNAKNTVYLQLNSLKPEDTAVYYCAADPVHRFPGTGGFWGKGTQVTVSS	low polyreactivity
QVQLVESGGGLVQAGGSLRLSCAASGSTFPVNTMGWYRQAPGKERELVAAITKNGANTYYADSVKGRFTLSRDNAKNTVFLQMNSLKPEDTAVYYCAARYVYGKSYSRWLVELDYWGQATQVTVSS	low polyreactivity
QVQLVESGGGLVQAGGSLRLSCAASGITFTGYAMGWYRQAPGKERELVAAITWSSGSTYYADSVKGRFTISRDNAKNTVYLQMNSLKPEDTAVYYCNTDYGRYLYYRYGYWGQGTQVTVSS	low polyreactivity
QVQLVESGGALVQAGGSLRLSCAASGSTFVYYAMGWYRQAPGKERELVAAISRSGTSTYYADSVKGRFTISRDNAKNTVYLQMNSLKPEDTAVYYCNARKKQGYDYWGQGTQVTVSS	high polyreactivity
QVQLVESGGGLVQAGGSLRLSCAASGRIFFTNAMGWYRQAPGKERELVATISSSDGSTYYADSVKGRFTISRDNAKNTVYLQMNSLNPEDTAVYYCAALYSFRGSRQYTYKYYYWGQGTQVTVSS	high polyreactivity
QVQLVESGGGLVQAGGSLRLSCAASGITFSYNAMGWYRQAPGKERELVAAIRVGDGSTYYADSVKGRFTISRDNAKNTVYLQMNSLKPEDTAVNYCNARYLRLRYPYTDEYNYWGQGTQVTVSS	low polyreactivity
QVQLVESGGGLDQAGGSLRLSCAASGSTFNSYAMGWYRQAPGKERELVAAITSSVGSTYYADSVKGRFTISRDNAKNTVYLQMNSLKPEDTAVYYCAADYFSYWYFSGYDYWGQGTQVTVSS	low polyreactivity
QVQLVESGGGLVQAGGSLRLSCAASGNIFYYNAMGWYRQAPGKVRELVAAITRSAGSTYYADSVKGRFPISRDNAKNTVYLQMNSLKPEDTAVYYCAATYSDLGYRYYSLGQGTQVTVSS	high polyreactivity
QVQLVESGGGLVQAGGSLRLSCAASGRIFPTNAMGWYRQAPGKERELVAAIPVSGGSTYYADSVKGRFTISRDNAKKTVYLQMNSLKPEDTAVYYCAVDDRASVGSRLDHWGQGTQVTVSS	low polyreactivity
QVQLVESGGGLVQAGGSLRLSCAASGYRFERNAMGWYIQAPGKERELVAAITDDGDDTYYADSVKGRFTISRDNAKNTVYLQINSLKPEDYAVYYWAKDLYYGDYYYWGQGTQVTVSS	low polyreactivity
QVQLVESGGGLVQAGGSLRLSCAASGRIFEIYALGWYRQAPGKERELVAAISWRGVSTYYADSVKGRFTISRDNAKNTVYLQMKSLKPEDTAVYYCNKDVDYFWYVEYDYWGQGTQVTVSS	low polyreactivity
QVQLVESGGGLVQAGGSLRLSCAASGSTFWVNAMGWYRQAPGKERELVAAITVRGTSTYYADSVKGRFTISRDNAKNTVYLQMNSLKPEDTAVYYCAKGSLGSTRYYYWGQGTQVTVSS	low polyreactivity
QVQLVESGGGLVQAGGSLRLSCAASGITFYFNAMGWYRQAPGKERELVAVITSGGSTNYADSVKGRFTISRDNAKNTVYLQMNSLKPEDTAVYYCANDKSYSSWSAQYDYWGQGTHVTVSS	low polyreactivity
QVQLVESGGGLVQAGGSLRLSCAASGFTFGLYAMGWYRQAPGKERELVAAISSDGSTYYTDSVKGRFTISRDNAKNTVYLQMNSLKPEDTSVYYCNRDYPQSLPYYTNTILYGYWGQGTQVTVSS	low polyreactivity
QVQLQESGGGLVQAGGSLRLSCAASGYISWYSEMGWYRQAPGKEREFVATITCGTTTNYAVSVKGRFTISRDNAKNTVYLQKNSLKPEDTAVYYCAVHDARHYEFDYWGQGTQVTVSS	high polyreactivity

Sequence	polyreactivity (PSR sort gate)
QVQLVESGGCLVQAGGSLRLSCAASGSTFVKIVMGWYRQAPGKERELVAGITRGGSTYYADSVKGRFTISRDNAKNTVYLQMNSLKPEDTPVYYCAKRYAWDRDYWGQGTQVTVSS	high polyreactivity
QVQLVESGGGLVQAGGSLRLSCAASGRTFFYYAMGWYRQAPGKERELVAGITSTGSSTYYADSVKGRFTISRDNAKNTLYLQMNSLKPEDTAVYYCAADRYTTYSGQWSYPYDYWGQGTQVTVSS	low polyreactivity
QVHLVESGGGLVQAGGSLRLSCAASGSIYLITAMGWYRQAPGKERELVAAISSRGTSTYYADSVKGRFTISRDNAKNTVYFQMNSLKAEDTAVYYCAARAIRANGYDYWGQCTQVTVSS	high polyreactivity
QVQLVESGGGLVQAGGSLRLSCAASGIIVPYNAMGWYRQEPGKVRYLVSAITSGGSTYYADSVKGRFTISRDNAKNTVYLQMNSMKPEDTAVYYCAKVPLSARRNNQSWAYDYWGQGTQVTVSS	low polyreactivity
QVQLVESGGGLVQAGGSLRLSCAASGFTFASYVMGWYRQAPGKERELVAAISYSGGYTYYADSVKGRFTISRDNAKNTVYLQMNSLKPEDTAVYYCNARYLQGYSGRYGYWGQGTQVTVSS	high polyreactivity
QVQLVESGGGLVQAGGSLRLSCAASGGTFSVYAMGWYRQAPGKEREFVASITYGGGITYYADSVKGRFTISRDNAKNTVYLQMNSLKPEDTAVYYCAVDRRVLWYDMDYWGQGTQVTVSS	high polyreactivity
QVQLVESGGGLVQAGGSLRLSCAASGFIIAFDNAMGWYRQAPGKERELVAAISSGTTTHYADSVKGRFTISRDNAKNTVYLQMNSLKPEDTAVYYCAADSVKQVRYGNVGHDYWGQGTQVTVSS	low polyreactivity
QVQLEESGGGLVQAGGSLRLSCAASGRISESNDRGWYRQAPGKERQLVAAISSSGGSTYYADSVKGRFTISRDTAKNTVYLQLNSLKPEDTAVYYCAREYIFSVYDYSTSYYYWGQGTQVTVSS	low polyreactivity
QVQLVESGGGLVQAGGSLRLSCAASGRTFQWYAMGWYRQAPGKERELVAAISWGGGRTYYADSVKGRFTISRDNAKNTVYLQMNSLKPEDTAVYYCAASYRKLPDKKRYGYWGQGTQVTVSS	high polyreactivity
QVQLVESGGGLVQAGGSLRLSCAASGRIFKYYVMGWYRQAPGKERELVAAISSGSGSTYYADSVKGRFTISRDNAKNTVYLQMNSLKPEDTAVYYCNALSSWRRTYGSRYDYWGQGTQVTVSS	high polyreactivity
QVQLVESGGGFGQAGGSLRLSCAASGLIFRWYAMGWYRQAPGKERELVAAISWSGASTYYADSVKGRFTISRDNAKNTVYLQMNSLKPEDTAVYYCAADSAYWTYEYWGQGTQVTVSS	high polyreactivity
QVQLVESGGGLVQAGGSLRLSCASSGRIFFMYAMGWYIQAPGKERELVAAINKSGGSTYADSVKGRFTISRDNANNTVYLQMNSLKPEDTAVYYCATENTDSGESVYIVKYGSDYWGQGTQVTVSS	low polyreactivity
QVQLVESGGGLVQAGGSLRLSCAASGRTFRAYVMGWYRQAPGKERELVAAISGRGGSTYYADSVKGRFTSSRDNAKNTVYLQMNSLKPEDTAVYYCNAVQLSQRPHDYWGQGTQVTVSS	high polyreactivity
QVQLVESGRGLVQAGGRLRLSCAASGRTFSRNAMGRYRQAPGKERELVAAISFRGVSTYYADSEKGRFTISRDNAKNTVYLQLNSLKPEDTAVYYCARRYTSKGGYDYWGQGTQVTVSS	high polyreactivity
QVQLVESGGGLVQAGGRLRLSCAASGGIFGQNAMRWYRQAPGKERELVAGISASGGSTYYADSVKGRFTISRDNAKNTVYLQRNSLKPEDTAVYYCAARTKRRRYDYWGQGTQVTVSS	high polyreactivity
QVQLVESGGGLVQAGGSLRLSCAASGFIFVGYAMGWYRQAPGKERELVAAITDGGRTKYADSVKGRFTISRDNAKNTVYLQMNSLKPEDTAVYYCAADDLHTYYTLDYWGQGTQVTVSS	high polyreactivity
QDQLVESGGGLVQAGGSLRLSCAASGSNFRFNAMGWDTQAPGKEREFDAANSRSGGRTYYADSVKGRFRISRDNAKNTVYFQMNCLKPEDTAVFYCNAVWRFPIGRSAPRYDYWGQGTQVTVSS	high polyreactivity
QVQLVESGGGLVQAGGSLRLSCAASGSTFEVYTMGWYRQAPGKARELVADITWSGGNTYYADSVKGRYTISRDNAKNTVYLQMNSLKPEDTAVYYCAVDGGEFSSYGYWGQGTQVTVSS	low polyreactivity
QVQLVESGGGLVQAGGSLRLSCAASGRTFPLNAMGWYRQAPGKERELVARISSNGGSTYYADSMKGRFTISRDNAKNTVYLQMNSLKPEDTAVYYCAARYYSRRGLYYWGQGTQVTVSS	high polyreactivity
QVQLVESGGGLVQAGGSLRLSCAASGFTFYYYAMGGYSQAPGKERELVAAISSTGGSTYYADSVKGRFTISRDNAKNTVYLQMNSLKPEDTAVYYCNAAGYRYPGDYDFWGQGTQVTVSS	high polyreactivity
QVQLVESGGGLVQAGGTLRLSCAASGFTFGFYAMGWYRQAPGKERELVAAITWSGGSTYYADSVKGRFTISRDNAKNTVYLQMNSLKPEDTAVYYCNAYTYGSEFDYWGQGTQVTVSS	high polyreactivity
